Laboratory results from US20200277405A1, “COMPOSITION FOR ANTIBODY-DRUG CONJUGATE DIRECTED AGAINST TUMOR-CELL ASSOCIATED POLYSIALIC ACID” (Cornell University, priority 2019, published 2020).

B1: mo735: well-known mouse-derived IgG2a monoclonal antibody 735 targeting polysialic acid (antibody, V domains shown)
VH: QIQLQQSGPELVRPGASVKISCKASGYTFTDYYIHWVKQRPGEGLEWIGWIYPGSGNTKYNEKFKGKATLTVDTSSSTAYMQLSSLTSEDSAVYFCARGGKFAMDYWGQGTSVTVSS
VL: DVVMTQTPLSLPVSLGDQASISCRSSQSLVHSNGNTYLYWYLQKPGQSPKPLIYRVSNRFSGVPDRFSGSGSGTDFTLKISRVEAEDLGVYFCFQGTHVPYTFGGGTRLEIK
B2: ch735: chimeric human IgG1 polySia-specific mAb made by swapping variable regions of mouse mAb 735 (antibody, V domains shown)
VH: B1 VH
VL: B1 VL

How the values were obtained:
[1] = CFG glycan microarray specificity profiling; type: binding; settings: for glycan specificity from microarrays: CFG glycan array (v5.3 mo735, v5.4 ch735) and glycoprotein array
Protocol: (§1) FIGS. 2A-2D depict binding specificity and affinity of the ch735 antibody. […] ELISA signals (Abs370) were obtained with anti-human IgG secondary antibodies. […] Antibodies were assayed at 1 μg/mL and detected with anti-human IgG secondary antibodies. […] Antibodies were assayed at 10 μg/mL and detected with anti-mouse IgG secondary antibodies.
as §1, with “3A-3D” for “2A-2D”, “mo735” for “the ch735”, “anti-mouse” for “anti-human”
Specificity of mo735 and ch735 was determined using printed glycan arrays 5.3 and 5.4 at the CFG. Both antibodies were analyzed at 10 μg/mL with 5 μg/mL of anti-mouse or anti-human Alexa-Fluor 647 (AF647)-conjugated secondary, respectively. Specificity of mo735 (1 μg/mL) and ch735 (10 μg/mL) was also assessed on a custom glycoprotein array that contained ˜40-50 glycoproteins including chicken brain NCAM and endoN-treated chicken brain NCAM.

[2] = test system: chicken brain-derived polysialylated neural cell adhesion molecule (NCAM); test: ELISA with immobilized NCAM; type: binding
Protocol: as §1
as §1, with “3A-3D” for “2A-2D”, “mo735” for “the ch735”, “anti-mouse” for “anti-human”
Costar 96-well ELISA plates (Corning) were coated overnight at 4° C. with 50 μl of 1 μg/mL chicken brain NCAM (Millipore) or endoN-treated NCAM in PBS. Chicken NCAM (Millipore, AG265) was digested with 1.5 μg of endoN per 50 μg of NCAM overnight at 37° C. After blocking with 5% (w/v) milk in PBS for 1-3 h at room temperature or overnight at 4° C., ELISA plates were washed three times with wash buffer (PBST with 0.3% BSA) and incubated with serially diluted purified ch735, mo735 (Absolute Antibody), or ab5032 (Millipore) for 1 h at room temperature. Antibody samples were quantified with a Nanodrop. […]

[3] = molecular target: polysialylated NCAM; test: SPR (Biacore) equilibrium binding to NCAM; design: species or system chicken; settings: antibody on Protein A sensor chip; NCAM 0.25-250 nM; Hill slope analysis in Prism
Protocol: FIGS. 5A-5D depict binding affinity analysis of mo735 and ch735 antibodies. Binding kinetics for the mo735 and ch735 antibodies were monitored using Biacore. Commercial mo735 or recombinant purified ch735 was immobilized at low concentrations on a Biacore Protein A sensor chip and the response to different concentrations of NCAM (ranging from 0.25-250 nM) was compared with an empty flow cell. FIGS. 5A-5B depicts representative sensorgram data for mo735 (FIG. 5A) and ch735 (FIG. 5B).
Equilibrium binding-affinity measurements were made by SPR analysis on a Biacore 3000 system. Antibodies mo735 and ch735 were bound to the surface of a Protein A sensor chip with a target level of 1700 response units (RUs). Serial dilutions of the antigen, chicken NCAM, prepared in 10 mM HEPES, pH 7.4, 150 mM NaCl, 3 mM EDTA, 0.005% polysorbate-20 (HBS-EP buffer, GE Healthcare) at concentrations ranging from 0.25 to 250 nM were injected over the chip using the same buffer at a flow rate of 20 μl/min (10 min injection time, 2 min stabilization time, 20 min dissociation). The surface of the chip was regenerated between the injections of each serial dilution with 10 mM glycine, pH 1.5 (30 sec injection time, 3 min stabilization time). Kinetic parameters were determined by fitting the maximum response values for each concentration using the Hill slope non-linear regression analysis in Prism software.

[4] = test system: polySia expressed on the surface of different cancer cell lines; test: Flow cytometric analysis of antibody binding to cancer cell lines; type: cell-based, human
Excerpt: FIGS. 6A-6D depict immunostaining of antibody ch735 to polySia-expressing cancer cells. […] Data are the geometric mean fluorescence intensity (MFI), with the values reported as the average of three replicates and the error represented as the standard deviation of the mean. […] Cells were stained with ch735, wheat germ agglutinin (WGA) to stain the cell membrane, and Hoescht to stain nuclei. Scale bars, 10 μm. […] Scale bars, 200 μm.
FIGS. 7A-7B depict binding of antibody ch735 and mo735 to polySia-expressing cancer cells. Representative fluorescence histograms for ch735 (FIG. 7A) and mo735 (FIG. 7B) binding to a panel of cancer cell lines measured by flow cytometry are shown. Histograms represent antibody binding to untreated cells, antibody binding to endoN-treated cells, and anti-human or anti-mouse secondary only control, respectively.
FIGS. 9A-9B depict binding of antibody mo735 to polySia-expressing cancer cells. […] Data are the geometric mean fluorescence intensity (MFI), with the values reported as the average of three replicates and the error represented as the standard deviation of the mean. […] Cells were stained with ch735, wheat germ agglutinin (WGA), and nuclei were stained with Hoescht. Scale bars, 10 μm.
Cancer cells were trypsinized and collected with media, followed by three washes in PBS. To remove polySia, cells were treated with endoN at 3 μg/mL in PBS for 1 h at room temperature. The cells are resuspended in 4% paraformaldehyde (PFA), fixed at room temperature with constant agitation for 10 min, and then washed two times with PBS, and two times with 0.5% BSA in PBS. The cells were collected and resuspended to 1 million cells/100 μL and pipetted into a round bottom 96-well plate. The cells were pelleted in the 96-well plate and resuspended in 0.5% BSA in PBS containing mo735 or ch735 (5 μg/mL) and incubated for 30 min at room temperature with constant agitation. Cells were washed three times with 0.5% BSA in PBS and resuspended in anti-mouse IgG-Alexa-Fluor 488 (AF488) secondary or anti-human IgG-AF488 secondary (ThermoFisher Scientific) at a 1:200 dilution for 30 min at room temperature in the dark with constant agitation. Cells were washed three times, resuspended in 500 μL of 0.5% BSA in PBS, and analyzed on a BD FACSCalibur flow cytometer using Cell Quest Pro software (BD Biosciences).

[5] = previous SPR and ITC experiments; cited from earlier work
[6] = CFG microarray version 5.4, 10 μg/mL

Molecule | glycan specificity from microarrays [1] | ELISA binding to NCAM [2] | Kd [3] [nM] | polySia binding on panel of cell lines compared with ch735 ([4]; staining of each of the cell lines) | preferred polySia chain length [5] | glycan array binding to glycan Chart ID #224 [1, 6] | glycan array binding to glycans #225 and 226 [1, 6] | glycan array binding to tetra-sialic acid glycan Chart ID #223 [1, 6] | surface binding by flow cytometry ([4]; A549 and MCF7 cells) | surface binding by flow cytometry ([4]; NCI-H69, NCI-H82 and SH-SY5Y cells) | surface binding by flow cytometry ([4]; SKOV3 and K562 cells) | surface binding by flow cytometry ([4]; SW2 cells) | surface binding following endoN treatment ([4]; polySia-positive cell lines, endoN-treated)
B1 | Nearly identical results | specifically recognize polySia | 10.2 | Identical polySia binding results | 8-11 sialic acid residues | – | – | – | – | – | – | – | –
B2 | α2,8-linked sialic acid with a degree of polymerization (DP) of three or greater | specifically recognize polySia | 4.79 | – | – | lesser but still significant level of binding above background | not | strong preference | No significant binding above background | lower intensity | not recognized | bound most avidly | lack of surface binding
